Measurements reported in patent US20050069907A1, “Methods for using double-mutant RNA polymerases with reduced discrimination between non-canonical and canonical nucleoside triphosphates” (priority 2002, published 2005).

What was measured:
Type in all cases: biochemical
poly(rC) = test: Activity on an RNA (poly(rC)) template
Description: T7 RNAP as a reverse transcriptase or RNA replicase which initiates de novo: It has been reported that T7 RNAP can use both RNA and DNA templates (Konarska and Sharp, 1989). Therefore, it was determined if the Y639F mutant would use dNTPs when transcribing an RNA template (poly(rC), see Table IV).
Numbers give mean and range from 3 experiments. Template was at 0.2 mg/ml, polymerases at 10^−6 M. Labeling NTPs were α-P^32 rGTP, α-P^32 dGTP.

supercoiled pT75 = test: Relative transcription activity with different rNTP/dNTP mixes
Description: (§1) Transcription reactions: Transcription reactions were carried out in 40 mM Tris-Cl pH 8.0, 15 mM MgCl2, and 5 mM DTT or 20 mM Manganese Citrate pH 8.0, 5 mM DTT at 37° C. Template, polymerase, and NTP concentrations were as indicated in the legends to the figures and tables. Relative activity determinations were made by taking 4 μl aliquots of reactions at 5, 10, and 20 minute time points and spotting on to DE81 filter paper. Unincorporated nucleotides were separated from incorporated nucleotides by washing the filter paper with 0.5 M KH2PO4 pH 7.0 and retained radioactive nucleotide was quantitated with a Molecular Dynamics phosphorimager. To evaluate rNTP/dNTP selectivity, reactions were run with 4 rNTPs and pT75 as template and α-P^32 rNTPs or α-P^32 dNTPs were used to label the transcripts. The relative rate of incorporation of an rNTP vs. its cognate dNTP was determined from the relative percentages of labeled rNTP vs. dNTP incorporated into DE81 retainable RNA at 5, 10, and 20 minute time points. Apparent miscoding frequencies were determined similarly, though in this instance the template was a single-stranded homopolymer and the reaction contained the complementary unlabeled rNTP, and complementary α-P^32 rNTP or one of the 3 non-complementary α-P^32 rNTPs. The relative percentages of labeled complementary vs. non-complementary rNTPs incorporated at 5, 10 and 20 minute time points gave an apparent miscoding rate. The rNTP/dNTP selectivity assay was used to test the following T7 RNAP mutants for effects on substrate discrimination: D537S, D537E, S539A, R5S1S, D552S, R627S, K631S, L637A, Y639S, Y639F, Y639A, G640A, F644A, G645A, Q649S, […], H811S, H811A, D812A, D812E, D812S, D812N, D879E+ΔF882+ΔA883, D879E+A881T+ΔA883, D879E+F884+A885, D879E+F882Y, D879E+ΔA883, D879E+F882W, D879E.
Relative activity of the W.T. and Y639F polymerases with different NTP combinations: The relative activities of the Y639F and W.T. polymerases with supercoiled pT75 as a template and various combinations of rNTPs/dNTPs were measured in both Mg^2+ and Mn^2+ buffers (see, Table II,).

poly(dT) = test: Apparent miscoding on homopolymeric template poly(dT)
Description: as §1
An increase in miscoding would be reflected in an increase in the rate of incorporation of the non-complementary NTP into RNA.
Numbers are averages from 2 experiments and reflect the ratio of the percentages of labeled rNTPs incorporated into RNA in reactions in which unlabeled complementary rNTPs were in great excess (0.5 mM) to labeled complementary or non-complementary rNTPs. Templates were at 0.1 mg/ml. Polymerases were at 10^−8 M in Mg^2+ buffer and 10^−7 M in Mn^2+ buffer.
*The upper number refers to results obtained in Mg^2+ buffer, the lower number to results in Mn^2+ buffer. n.d.: G640A, Y639A, Y639S were poorly active in Mn^2+ buffer, or on poly(dT) under all conditions.

poly(dI)·poly(dC) = test: Relative activity on poly(dI)·poly(dC)
Description: as §1
DNA and RNA synthesis on homopolymeric templates: T7 RNAP will synthesize poly(rG) RNAs on poly(dC) templates (Bonner, et al., 1994; Ikeda and Richardson 1987). The activity of the W.T. and mutant polymerases were measured on poly(dI)-poly(dC) with rGTP, dGTP, dGTP+rGMP (see, Table III).
Numbers give mean and range from 3 experiments. Templates were at 0.2 mg/ml, polymerases at 10^-8 M. Labeling NTPs were α-P^32 rGTP, α-P^32 dGTP, α-P^32 rATP, α-P^32 dATP, as appropriate. rNTPs or rNMPs at 0.5 mM; dNTPs at 1 mM.

## Y639F: T7 RNAP with wild-type tyrosine at position 639 substituted by phenylalanine
poly(rC); 1 mM GTP
  Activity on poly(rC) template: 62 (48-80)
poly(rC); 1 mM dGTP + .5 mM GMP
  Activity on poly(rC) template: 116 (90-148)
poly(rC); .5 mM GTP, mean and range from 3 experiments
  Activity on poly(rC) template: 505 (358-733)
poly(rC); with dGTP
  Reduction of activity on poly(rC): ~8 fold
poly(rC); with dGTP+rGMP
  Reduction of activity on poly(rC): ~4 fold
Supercoiled pT75; 1 rNTP, dCTP, dATP, dGTP, with rGMP, Mg^2+
  Relative activity: 3-5
Supercoiled pT75; 1 rNTP, dCTP, dATP, dGTP, with rGMP, Mn^2+
  Relative activity: 1-2
Supercoiled pT75; 1 rNTP, dCTP, dATP, dTTP, Mg^2+
  Relative activity: 12-14
Supercoiled pT75; 1 rNTP, dCTP, dATP, dTTP, Mn^2+
  Relative activity: .7-2
Supercoiled pT75; 1 rNTP, dCTP, dATP, dUTP, Mg^2+
  Relative activity: 10-11
Supercoiled pT75; 1 rNTP, dCTP, dATP, dUTP, Mn^2+
  Relative activity: 2-3
Supercoiled pT75; 1 rNTP, dTTP, dATP, dGTP, with rGMP, Mg^2+
  Relative activity: 11
Supercoiled pT75; 1 rNTP, dTTP, dATP, dGTP, with rGMP, Mn^2+
  Relative activity: 1.5-2
Supercoiled pT75; 1 rNTP, dTTP, dCTP, dGTP, with rGMP, Mg^2+
  Relative activity: 10-13
Supercoiled pT75; 1 rNTP, dTTP, dCTP, dGTP, with rGMP, Mn^2+
  Relative activity: 2-4
Supercoiled pT75; 2 rNTPs, dATP, dGTP, rGMP, Mg^2+
  Relative activity: 5-6
Supercoiled pT75; 2 rNTPs, dATP, dGTP, rGMP, Mn^2+
  Relative activity: 1-1.5
Supercoiled pT75; 2 rNTPs, dATP, dTTP, Mg^2+
  Relative activity: 11-14
Supercoiled pT75; 2 rNTPs, dATP, dTTP, Mn^2+
  Relative activity: 3-4
Supercoiled pT75; 2 rNTPs, dCTP, dATP, Mg^2+
  Relative activity: 20-29
Supercoiled pT75; 2 rNTPs, dCTP, dATP, Mn^2+
  Relative activity: 4-7
Supercoiled pT75; 2 rNTPs, dCTP, dGTP, rGMP, Mg^2+
  Relative activity: 11-14
Supercoiled pT75; 2 rNTPs, dCTP, dGTP, rGMP, Mn^2+
  Relative activity: 2-5
Supercoiled pT75; 2 rNTPs, dCTP, dTTP, Mg^2+
  Relative activity: 30
Supercoiled pT75; 2 rNTPs, dCTP, dTTP, Mn^2+
  Relative activity: 5
Supercoiled pT75; 2 rNTPs, dCTP, dUTP, Mg^2+
  Relative activity: 27-29
Supercoiled pT75; 2 rNTPs, dCTP, dUTP, Mn^2+
  Relative activity: 4-7
Supercoiled pT75; 2 rNTPs, dTTP, dGTP, rGMP, Mg^2+
  Relative activity: 13-15
Supercoiled pT75; 2 rNTPs, dTTP, dGTP, rGMP, Mn^2+
  Relative activity: 3-6
Supercoiled pT75; 3 rNTPs, dATP, Mg^2+
  Relative activity: 73
Supercoiled pT75; 3 rNTPs, dATP, Mn^2+
  Relative activity: 2-3
Supercoiled pT75; 3 rNTPs, dCTP, Mg^2+
  Relative activity: 86
Supercoiled pT75; 3 rNTPs, dCTP, Mn^2+
  Relative activity: 7-11
Supercoiled pT75; 3 rNTPs, dGTP, rGMP, Mg^2+
  Relative activity: 95-109
Supercoiled pT75; 3 rNTPs, dGTP, rGMP, Mn^2+
  Relative activity: 1.4-2.5
Supercoiled pT75; 3 rNTPs, dGTP, Mg^2+
  Relative activity: 43-63
Supercoiled pT75; 3 rNTPs, dGTP, Mn^2+
  Relative activity: 3
Supercoiled pT75; 3 rNTPs, dTTP, Mg^2+
  Relative activity: 90-96
Supercoiled pT75; 3 rNTPs, dTTP, Mn^2+
  Relative activity: 4
Supercoiled pT75; 3 rNTPs, dUTP, Mg^2+
  Relative activity: 82-91
Supercoiled pT75; 3 rNTPs, dUTP, Mn^2+
  Relative activity: 7-8
Supercoiled pT75; 4 dNTPs, rGMP, Mg^2+
  Relative activity: <.5
Supercoiled pT75; 4 dNTPs, rGMP, Mn^2+
  Relative activity: .5
Supercoiled pT75; 4 rNTPs, Mg^2+
  Relative activity: 200
Supercoiled pT75; 4 rNTPs, Mn^2+
  Relative activity: 9
poly(dT)
  Increase in miscoding rates in Mn^2+ buffer, on average: ~5 fold
  Increase, relative to W.T., in ratio of rates of rGTP to rATP incorporation: ~2 fold
poly(dT); Mg^2+ buffer
  Relative rate of incorporation ATP/CTP: >94
  Relative rate of incorporation ATP/GTP: 94
  Relative rate of incorporation ATP/UTP: 94
poly(dT); Mn^2+ buffer
  Relative rate of incorporation ATP/CTP: 60
  Relative rate of incorporation ATP/GTP: 27
  Relative rate of incorporation ATP/UTP: 20
poly(dI)·poly(dC); dGTP
  Relative activity on poly(dI)·poly(dC): 964 (684-1257)
poly(dI)·poly(dC); dGTP + rGMP
  Relative activity on poly(dI)·poly(dC): 1070 (816-1457)
poly(dI)·poly(dC); rGTP, mean and range from 3 experiments
  Relative activity on poly(dI)·poly(dC): 1000
